B1: AXIN1 peptide 237-252 (Axin-1), 16-mer library wild type / PP2A B56 (PPP2R5A B56 domain, residues 1-486) (parent complex)
chain 1: YLPTLNEDEEWKADQD
chain 2: not shown

Variants of: B1
Experiment: proteomic peptide phage display deep mutational scan (ProP-PD DMS): M13 P8 16-mer library selected against immobilised GST-tagged bait for four days (rounds), NGS of the eluted pools per day and pseudo-replica; bait immobilised on MaxiSorp plates (10 µg), library pre-cleared on GST, 2 h binding at 4 °C, five washes; one round per day, days 1-4; value from days 2 and 3

Question: chain 1 A13Q was tested. Which screen value did it give?
Answer: 0.000245 average fractional NGS count over selection days 2 and 3 (reads of this peptide / all reads for the bait, averaged over …

Question: chain 1 A13L was tested. Which screen value did it give?
Answer: 0.000528 average fractional NGS count over selection days 2 and 3 (reads of this peptide / all reads for the bait, averaged over …

Question: With chain 1 A13N as the variant, how does the screen value read?
Answer: 0.000152 average fractional NGS count over selection days 2 and 3 (reads of this peptide / all reads for the bait, averaged over …

Question: How did the screen value turn out when chain 1 A13T was run?
Answer: 0.000184 average fractional NGS count over selection days 2 and 3 (reads of this peptide / all reads for the bait, averaged over …

Question: How did the screen value turn out when chain 1 A13S was run?
Answer: 0.0021 average fractional NGS count over selection days 2 and 3 (reads of this peptide / all reads for the bait, averaged over …

Question: Which screen value does the source give for chain 1 A13I here?
Answer: 0.00149 average fractional NGS count over selection days 2 and 3 (reads of this peptide / all reads for the bait, averaged over …

Question: With chain 1 A13G as the variant, how does the screen value read?
Answer: 0.000231 average fractional NGS count over selection days 2 and 3 (reads of this peptide / all reads for the bait, averaged over …

Question: For chain 1 A13P, which screen value is on record?
Answer: 0.00194 average fractional NGS count over selection days 2 and 3 (reads of this peptide / all reads for the bait, averaged over …

Question: chain 1 K12N was tested. Which screen value did it give?
Answer: 0.00219 average fractional NGS count over selection days 2 and 3 (reads of this peptide / all reads for the bait, averaged over …

Question: Which screen value does the source give for chain 1 K12Y here?
Answer: 0.00745 average fractional NGS count over selection days 2 and 3 (reads of this peptide / all reads for the bait, averaged over …

Question: With chain 1 K12R as the variant, how does the screen value read?
Answer: 0.00196 average fractional NGS count over selection days 2 and 3 (reads of this peptide / all reads for the bait, averaged over …

Question: With chain 1 K12Q as the variant, how does the screen value read?
Answer: 0.00267 average fractional NGS count over selection days 2 and 3 (reads of this peptide / all reads for the bait, averaged over …

Question: With chain 1 K12E as the variant, how does the screen value read?
Answer: 0.000936 average fractional NGS count over selection days 2 and 3 (reads of this peptide / all reads for the bait, averaged over …

Question: How did the screen value turn out when chain 1 K12H was run?
Answer: 0.0202 average fractional NGS count over selection days 2 and 3 (reads of this peptide / all reads for the bait, averaged over …

Question: How did the screen value turn out when chain 1 K12P was run?
Answer: 0.00867 average fractional NGS count over selection days 2 and 3 (reads of this peptide / all reads for the bait, averaged over …

Question: chain 1 K12S was tested. Which screen value did it give?
Answer: 0.0233 average fractional NGS count over selection days 2 and 3 (reads of this peptide / all reads for the bait, averaged over …

Question: How did the screen value turn out when chain 1 K12I was run?
Answer: 0.00212 average fractional NGS count over selection days 2 and 3 (reads of this peptide / all reads for the bait, averaged over …

Question: Which screen value does the source give for chain 1 K12D here?
Answer: 0.000722 average fractional NGS count over selection days 2 and 3 (reads of this peptide / all reads for the bait, averaged over …

Question: Which screen value does the source give for chain 1 K12V here?
Answer: 0.00977 average fractional NGS count over selection days 2 and 3 (reads of this peptide / all reads for the bait, averaged over …

Question: chain 1 K12L was tested. Which screen value did it give?
Answer: 0.00105 average fractional NGS count over selection days 2 and 3 (reads of this peptide / all reads for the bait, averaged over …

Question: How did the screen value turn out when chain 1 L2M was run?
Answer: 0.000692 average fractional NGS count over selection days 2 and 3 (reads of this peptide / all reads for the bait, averaged over …

Question: Which screen value does the source give for chain 1 D14V here?
Answer: 0.00647 average fractional NGS count over selection days 2 and 3 (reads of this peptide / all reads for the bait, averaged over …

Question: chain 1 D14Y was tested. Which screen value did it give?
Answer: 0.00582 average fractional NGS count over selection days 2 and 3 (reads of this peptide / all reads for the bait, averaged over …

Question: chain 1 D14Q was tested. Which screen value did it give?
Answer: 0.00055 average fractional NGS count over selection days 2 and 3 (reads of this peptide / all reads for the bait, averaged over …

Question: For chain 1 D14F, which screen value is on record?
Answer: 0.0121 average fractional NGS count over selection days 2 and 3 (reads of this peptide / all reads for the bait, averaged over …

Question: Which screen value does the source give for chain 1 D14P here?
Answer: 0.00181 average fractional NGS count over selection days 2 and 3 (reads of this peptide / all reads for the bait, averaged over …

Question: With chain 1 D14A as the variant, how does the screen value read?
Answer: 0.00375 average fractional NGS count over selection days 2 and 3 (reads of this peptide / all reads for the bait, averaged over …

Question: For chain 1 D14S, which screen value is on record?
Answer: 0.00823 average fractional NGS count over selection days 2 and 3 (reads of this peptide / all reads for the bait, averaged over …

Question: How did the screen value turn out when chain 1 D14T was run?
Answer: 0.00142 average fractional NGS count over selection days 2 and 3 (reads of this peptide / all reads for the bait, averaged over …

Question: Which screen value does the source give for chain 1 D14N here?
Answer: 0.00275 average fractional NGS count over selection days 2 and 3 (reads of this peptide / all reads for the bait, averaged over …

Question: With chain 1 D14I as the variant, how does the screen value read?
Answer: 0.000947 average fractional NGS count over selection days 2 and 3 (reads of this peptide / all reads for the bait, averaged over …

Question: For chain 1 D14E, which screen value is on record?
Answer: 0.00475 average fractional NGS count over selection days 2 and 3 (reads of this peptide / all reads for the bait, averaged over …

Question: chain 1 D14G was tested. Which screen value did it give?
Answer: 0.00106 average fractional NGS count over selection days 2 and 3 (reads of this peptide / all reads for the bait, averaged over …

Question: Which screen value does the source give for chain 1 E9P here?
Answer: 0.00261 average fractional NGS count over selection days 2 and 3 (reads of this peptide / all reads for the bait, averaged over …

Question: With chain 1 E9N as the variant, how does the screen value read?
Answer: 0.000581 average fractional NGS count over selection days 2 and 3 (reads of this peptide / all reads for the bait, averaged over …

Question: Which screen value does the source give for chain 1 E9S here?
Answer: 0.00105 average fractional NGS count over selection days 2 and 3 (reads of this peptide / all reads for the bait, averaged over …

Question: How did the screen value turn out when chain 1 E9Q was run?
Answer: 0.0159 average fractional NGS count over selection days 2 and 3 (reads of this peptide / all reads for the bait, averaged over …

Question: With chain 1 E9R as the variant, how does the screen value read?
Answer: 0.000957 average fractional NGS count over selection days 2 and 3 (reads of this peptide / all reads for the bait, averaged over …

Question: chain 1 E9A was tested. Which screen value did it give?
Answer: 0.00203 average fractional NGS count over selection days 2 and 3 (reads of this peptide / all reads for the bait, averaged over …

Question: Which screen value does the source give for chain 1 E9I here?
Answer: 0.00451 average fractional NGS count over selection days 2 and 3 (reads of this peptide / all reads for the bait, averaged over …

Question: chain 1 E9W was tested. Which screen value did it give?
Answer: 0.00436 average fractional NGS count over selection days 2 and 3 (reads of this peptide / all reads for the bait, averaged over …

Question: With chain 1 E9T as the variant, how does the screen value read?
Answer: 0.00244 average fractional NGS count over selection days 2 and 3 (reads of this peptide / all reads for the bait, averaged over …

Question: chain 1 E9G was tested. Which screen value did it give?
Answer: 0.000581 average fractional NGS count over selection days 2 and 3 (reads of this peptide / all reads for the bait, averaged over …

Question: Which screen value does the source give for chain 1 N6I here?
Answer: 0.00196 average fractional NGS count over selection days 2 and 3 (reads of this peptide / all reads for the bait, averaged over …

Question: For chain 1 N6Q, which screen value is on record?
Answer: 0.00501 average fractional NGS count over selection days 2 and 3 (reads of this peptide / all reads for the bait, averaged over …

Question: How did the screen value turn out when chain 1 N6T was run?
Answer: 0.00301 average fractional NGS count over selection days 2 and 3 (reads of this peptide / all reads for the bait, averaged over …

Question: How did the screen value turn out when chain 1 N6H was run?
Answer: 0.0272 average fractional NGS count over selection days 2 and 3 (reads of this peptide / all reads for the bait, averaged over …

Question: Which screen value does the source give for chain 1 N6E here?
Answer: 0.00107 average fractional NGS count over selection days 2 and 3 (reads of this peptide / all reads for the bait, averaged over …

Question: With chain 1 N6A as the variant, how does the screen value read?
Answer: 0.00273 average fractional NGS count over selection days 2 and 3 (reads of this peptide / all reads for the bait, averaged over …

Question: With chain 1 N6S as the variant, how does the screen value read?
Answer: 0.0193 average fractional NGS count over selection days 2 and 3 (reads of this peptide / all reads for the bait, averaged over …

Question: With chain 1 N6W as the variant, how does the screen value read?
Answer: 0.000792 average fractional NGS count over selection days 2 and 3 (reads of this peptide / all reads for the bait, averaged over …

Question: Which screen value does the source give for chain 1 N6F here?
Answer: 0.000398 average fractional NGS count over selection days 2 and 3 (reads of this peptide / all reads for the bait, averaged over …

Question: For chain 1 N6P, which screen value is on record?
Answer: 0.0105 average fractional NGS count over selection days 2 and 3 (reads of this peptide / all reads for the bait, averaged over …

Question: For chain 1 N6Y, which screen value is on record?
Answer: 0.000368 average fractional NGS count over selection days 2 and 3 (reads of this peptide / all reads for the bait, averaged over …

Question: With chain 1 N6L as the variant, how does the screen value read?
Answer: 0.00123 average fractional NGS count over selection days 2 and 3 (reads of this peptide / all reads for the bait, averaged over …

Question: With chain 1 N6M as the variant, how does the screen value read?
Answer: 0.000248 average fractional NGS count over selection days 2 and 3 (reads of this peptide / all reads for the bait, averaged over …

Question: Which screen value does the source give for chain 1 P3Q here?
Answer: 0.000844 average fractional NGS count over selection days 2 and 3 (reads of this peptide / all reads for the bait, averaged over …

Question: chain 1 P3S was tested. Which screen value did it give?
Answer: 0.00024 average fractional NGS count over selection days 2 and 3 (reads of this peptide / all reads for the bait, averaged over …

Question: How did the screen value turn out when chain 1 P3T was run?
Answer: 0.000276 average fractional NGS count over selection days 2 and 3 (reads of this peptide / all reads for the bait, averaged over …

Question: Which screen value does the source give for chain 1 P3A here?
Answer: 0.000353 average fractional NGS count over selection days 2 and 3 (reads of this peptide / all reads for the bait, averaged over …

Question: For chain 1 T4Q, which screen value is on record?
Answer: 0.00351 average fractional NGS count over selection days 2 and 3 (reads of this peptide / all reads for the bait, averaged over …

Question: Which screen value does the source give for chain 1 T4P here?
Answer: 0.00197 average fractional NGS count over selection days 2 and 3 (reads of this peptide / all reads for the bait, averaged over …

Question: With chain 1 T4A as the variant, how does the screen value read?
Answer: 0.000216 average fractional NGS count over selection days 2 and 3 (reads of this peptide / all reads for the bait, averaged over …

Question: chain 1 T4S was tested. Which screen value did it give?
Answer: 0.000737 average fractional NGS count over selection days 2 and 3 (reads of this peptide / all reads for the bait, averaged over …

Question: How did the screen value turn out when chain 1 E10P was run?
Answer: 0.00206 average fractional NGS count over selection days 2 and 3 (reads of this peptide / all reads for the bait, averaged over …

Question: Which screen value does the source give for chain 1 E10V here?
Answer: 0.0046 average fractional NGS count over selection days 2 and 3 (reads of this peptide / all reads for the bait, averaged over …

Question: chain 1 E10M was tested. Which screen value did it give?
Answer: 0.00109 average fractional NGS count over selection days 2 and 3 (reads of this peptide / all reads for the bait, averaged over …

Question: Which screen value does the source give for chain 1 E10T here?
Answer: 0.00217 average fractional NGS count over selection days 2 and 3 (reads of this peptide / all reads for the bait, averaged over …

Question: For chain 1 E10Y, which screen value is on record?
Answer: 0.00105 average fractional NGS count over selection days 2 and 3 (reads of this peptide / all reads for the bait, averaged over …

Question: For chain 1 E10R, which screen value is on record?
Answer: 0.000173 average fractional NGS count over selection days 2 and 3 (reads of this peptide / all reads for the bait, averaged over …

Question: With chain 1 E10I as the variant, how does the screen value read?
Answer: 0.0037 average fractional NGS count over selection days 2 and 3 (reads of this peptide / all reads for the bait, averaged over …
